Measurements taken from PMC4570272.

Molecular target: T1, Puf5p RNA-binding domain (Saccharomyces cerevisiae, UniProt P39016 201-600)
T1 sequence: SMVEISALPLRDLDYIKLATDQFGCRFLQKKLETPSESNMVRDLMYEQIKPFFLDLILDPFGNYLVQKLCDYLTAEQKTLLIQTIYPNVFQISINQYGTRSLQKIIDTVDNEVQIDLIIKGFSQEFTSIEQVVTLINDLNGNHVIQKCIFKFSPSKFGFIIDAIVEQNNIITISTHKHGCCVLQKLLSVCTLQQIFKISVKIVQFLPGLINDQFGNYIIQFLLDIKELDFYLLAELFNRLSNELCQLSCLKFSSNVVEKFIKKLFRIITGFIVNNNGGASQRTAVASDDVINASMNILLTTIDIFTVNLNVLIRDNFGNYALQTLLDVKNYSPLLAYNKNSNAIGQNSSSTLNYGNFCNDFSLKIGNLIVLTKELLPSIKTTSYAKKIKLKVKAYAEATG
Experiment: EMSA; EMSA: 10 mM HEPES pH 7.4, 50 mM NaCl, 1 mM EDTA, 0.1 mg/ml BSA, 0.01% Tween 20, 0.1 mg/ml yeast tRNA, 100 pM RNA, overnight at 4 C

Work on UGUAACUUUUUA (ssRNA) [AMN1 (12)] yielded a Kd of 106 nM.

UGUAAUGAUUA (ssRNA) [AAT2 (11)] showed a Kd of 345 nM.

With UGUAUUUGUA (ssRNA) [MFA2 (10)] the Kd was 179 nM.

With UGUACUAUA (ssRNA) [SMX2 (9)] the Kd was 28.4 nM.

In the case of UGUAUAUA (ssRNA) [NRE (8)], the Kd is reported as 3200 nM.
